Patent US20250171532A1 (NB HEALTH LABORATORY, published 2025)
Positions count from the first letter of the chain named.

T1: mouse LPA3 with FLAG tag (mouse LPA3 gene transfected cell) (mouse, UniProt Q9EQ31 1-354)
T1 construct: not shown: FLAG tag added at the 5' terminal of the gene
T1 sequence: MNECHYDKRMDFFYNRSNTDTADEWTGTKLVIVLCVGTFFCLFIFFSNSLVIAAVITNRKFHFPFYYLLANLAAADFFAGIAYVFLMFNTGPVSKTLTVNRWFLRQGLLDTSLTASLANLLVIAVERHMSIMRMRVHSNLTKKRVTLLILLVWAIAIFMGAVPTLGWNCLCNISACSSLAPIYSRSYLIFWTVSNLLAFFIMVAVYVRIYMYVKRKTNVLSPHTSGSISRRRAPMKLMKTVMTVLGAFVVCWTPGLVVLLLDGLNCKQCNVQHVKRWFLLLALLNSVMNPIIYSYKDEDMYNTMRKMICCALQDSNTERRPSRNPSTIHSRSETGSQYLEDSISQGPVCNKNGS

T2: human LPA3 with FLAG tag (human LPA3 gene transfected cell) (human, UniProt Q9UBY5 1-353)
T2 construct: also called EDG7; not shown: FLAG tag added at the 5' terminal of the gene
T2 sequence: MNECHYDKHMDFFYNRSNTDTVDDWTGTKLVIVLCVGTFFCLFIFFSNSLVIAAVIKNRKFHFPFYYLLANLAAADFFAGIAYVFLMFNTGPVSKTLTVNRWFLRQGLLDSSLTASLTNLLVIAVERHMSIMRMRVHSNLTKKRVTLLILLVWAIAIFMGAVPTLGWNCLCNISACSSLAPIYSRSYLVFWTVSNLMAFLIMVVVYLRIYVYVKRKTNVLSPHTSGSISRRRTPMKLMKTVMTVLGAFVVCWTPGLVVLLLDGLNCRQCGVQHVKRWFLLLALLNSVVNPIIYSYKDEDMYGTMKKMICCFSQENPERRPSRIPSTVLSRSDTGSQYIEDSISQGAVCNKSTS

B1: 210309-1-C (antibody, mouse IgG1, V domains shown)
VH: QVHLQQSGAELARPGASVKLSCKASGYSFTAYGISWVQQRTGQGLEWIGEIYPRSGNTYYSEKFKGKATLTADKSSSTAYMELRSLTSEDSAVYFCARESLLKRLGWYFDVWGTGTTVTVSS
VL: DIQMTQSPASLSASVGETVTITCRASQNIYSFLAWYQQKQGNSPQLLVYNAKTLAEGVPSRFSGSGSGTQFSLKINSLQPEDFGSYYCQHHYGPPLTFGVGTKLELK
notes: Mouse monoclonal from human LPA1 immunization
B2: 210420-1-H (antibody, mouse IgG1, V domains shown)
VH: QFQLQQSGAELARPGASVKLSCKASGYTFASFGISWVKQRTGQGLEYIGEIYPRSGTTYFNEKFRGKATLTADKSSSTAYMELRSLTSEDSAVYFCAREGVRRYAMDYWGQGTSVTVSS
VL: B1 VL with M4V, Q27G, N42K, N76S, P94I, V100G, E105D
notes: Mouse monoclonal from mouse LPA1 immunization
B3: 210309-2-A (antibody, mouse IgG1, V domains shown)
VH: B1 VH with H3Q, S28T, A31S, Q38K, S61N, K67R, L101I, K103L
VL: B1 VL with E17G, Q27E, S31R, N42K, S85I, V100A
notes: as for B1
B4: 211222-1-A (antibody, mouse IgG1, V domains shown)
VH: QVQVHQSGAELARPGASVRLSCKASGYTFTSFGVNWVKQRTGQGLEWIGQIYPRSGTTYHNERFKGKATLTADKSSSTAYMELRSLTSEDSAVYFCAREGDRYSLAYWGQGTLVTVSA
VL: B1 VL with Q27E, S31R, N42K, Y49S, S77Y, S85N, P94I, V100A
notes: as for B1
B5: 210309-1-G (antibody, mouse IgG1, V domains shown)
VH: QVQLQQSGAELARPGASMKLSCRASGYTFTSYGISWVKQRTGQGLEWIGEIYPRSGVTYYNEKFKGRATLTADKSSSTAFMELRSLTSEDSAVYFCARESISLRLGWYFDVWGTGTTVTVSS
VL: B1 VL with E17D, Q27E, S31R, G41R, N42K, Q45H, V100A, K107T
notes: as for B1
B6: 210310-1-D (antibody, mouse IgG1, V domains shown)
VH: B4 VH with H5Q, S55T, A72T
VL: B1 VL with Q27E, S31R, N42K, A55V, S77N, P94I, V100A
notes: as for B1

Each binder was assayed against T3, human LPA1 (human, UniProt Q92633 1-364) (assay: cell-based or functional assay).
T3 sequence (Q92633 whole entry): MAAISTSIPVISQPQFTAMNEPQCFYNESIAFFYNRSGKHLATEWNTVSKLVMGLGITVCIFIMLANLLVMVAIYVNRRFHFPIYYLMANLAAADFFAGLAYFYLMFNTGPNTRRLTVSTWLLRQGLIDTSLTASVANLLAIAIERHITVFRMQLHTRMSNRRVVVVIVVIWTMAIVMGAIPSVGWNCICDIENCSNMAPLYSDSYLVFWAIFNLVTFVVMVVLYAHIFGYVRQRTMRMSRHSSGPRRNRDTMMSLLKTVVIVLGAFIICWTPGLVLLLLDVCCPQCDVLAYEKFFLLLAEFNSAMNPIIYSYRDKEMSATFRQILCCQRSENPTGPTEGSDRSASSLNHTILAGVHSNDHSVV

Intracellular cAMP signaling inhibition (Inhibition rate %/100 nM) | Binder
47% | B1
22% | B2
32% | B3
1% | B4
34% | B5
22% | B6

These binders were tested against T4, mouse LPA1 (mouse, UniProt P61793 1-364) (assay: cell-based or functional assay).
T4 sequence (P61793 whole entry): as the sequence (Q92633 whole entry) above, with I4A, I8S, P22Q, H40Y, I61V, E193D, N194H, I269V, S331N, T335N counted along it

Intracellular cAMP signaling inhibition (Inhibition rate %/100 nM) | Binder
20% | B1
37% | B2
32% | B3
30% | B4
36% | B5
25% | B6

Biological target: T3, human LPA1
Assay: cell-based or functional assay
Remark: another data set of the same source

Intracellular cAMP signaling inhibition IC50 | Binder
25.1 nM | B1
49.1 nM | B2
21.8 nM | B3
69.9 nM | B4
40.9 nM | B5
60.5 nM | B6

Biological target: T4, mouse LPA1
Assay: cell-based or functional assay
Remark: another data set of the same source

Intracellular cAMP signaling inhibition IC50 | Binder
197 nM | B5

These binders were tested against T3, human LPA1 (assay: flow cytometry, human LPA1-stably expressing CHO cells, median fluorescence intensity).
From the text: (§1) The human LPA1-stably expressing CHO cell and the mouse LPA1-stably expressing CHO cell were washed with PBS, then detached from the cell culture dishes by an enzyme-free cell dissociation buffer (Thermo Fisher Scientific, Inc.), then washed with PBS, and then collected by centrifugation. The human LPA1-stably expressing CHO cell and the mouse LPA1-stably expressing CHO cell were suspended at 1×10⁷ cells/mL in Fc Block (Sci-Tech Biosciences, Inc.) diluted by 500 times in FACS buffer, and then allowed to stand at 4° C. for 30 minutes to block the cells. The cells were collected by centrifugation and suspended in FACS buffer at 4×10⁶ cells/mL, and this suspension was dispensed into a V-bottom 96-well plate (Thermo Fisher Scientific, Inc.) at 25 μL (1×10⁵ cells)/well. As primary antibodies, the eleven types of LPA1 antibodies produced and purified by the method described above and a mouse isotype control antibody (Fujifilm Wako Pure Chemicals Corporation) were diluted stepwise, which was added to each well at 25 μL/well, and allowed to stand at 4° C. for 1 hour. The cells were collected by centrifugation and washed with 120 μL of FACS buffer. This washing operation was repeated twice. To the cell sediment, 25 μL each of Goat Anti-Mouse IgG H&L (DyLight 650) (Abcam) that was a secondary antibody diluted by 500 times in FACS buffer was dispensed, then suspended, and then allowed to stand at 4° C. for 1 hour. The cells were washed twice, then suspended in 50 μL of FACS buffer, and the binding of antibodies to the cells was measured using a flow cytometer (Agilent Novocyte).
(§2) A graph was created, in which a concentration of the antibody was plotted on the […] axis, and a median fluorescence intensity of the flow cytometer histogram was plotted on the horizontal axis. All of the eleven antibodies were confirmed to dose-dependently bind to the human LPA1-stably expressing CHO cell and the mouse LPA1-stably expressing CHO cell. The results of the binding of each antibody to the human LPA1-stably expressing CHO cell are presented in FIG. 2A to FIG. 2K, and the results of the binding of each antibody to the mouse LPA1-stably expressing CHO cell are presented in FIG. 3A to FIG. 3K.

EC50 | Binder
1.7 nM | B1
2.5 nM | B2
1.4 nM | B3
2.3 nM | B4
1.8 nM | B5
2.7 nM | B6

Each binder was assayed against T5, mouse LPA2 with FLAG tag (mouse LPA2 gene transfected cell) (mouse, UniProt Q9JL06 1-348) (assay: flow cytometry, transfected HEK293FT cells, histogram shift).
T5 construct: not shown: FLAG tag added at the 5' terminal of the gene
Description: (§3) BTEK293FT cell was transfected with 10 μg of an expression vector carrying each synthetic gene using Lipofectamine 2000, to prepare a human LPA1 gene transfected cell, a mouse LPA1 gene transfected cell, a human LPA2 gene transfected cell, a mouse LPA2 gene transfected cell, a human LPA3 gene transfected cell, and a mouse LPA3 gene transfected cell.
(§4) The next day, the cells were washed with PBS, then detached from the cell culture dishes by an enzyme-free cell dissociation buffer (Thermo Fisher Scientific, Inc.), then washed with PBS, and then collected by centrifugation. Goat serum (Thermo Fisher Scientific, Inc.) was diluted by 2 times in FACS buffer (PBS containing 1% o of FBS), into which the cells were suspended at 1×10⁷ cells/mL. This suspension was allowed to stand at 4° C. for 30 minutes to block the cells. The cells were collected by centrifugation and suspended in FACS buffer at 4×10⁶ cells/mL, and this suspension was dispensed into a V-bottom 96-well plate (Thermo Fisher Scientific, Inc.) at 25 μL (1×10⁵ cells)/well.
(§5) The cells were collected by centrifugation and washed with 120 μL of FACS buffer. This washing operation was repeated twice. To the cell sediment, 25 μL each of Goat Anti-Mouse IgG H&L (DyLight 650) (Abcam) that was a secondary antibody diluted by 500 times in FACS buffer was dispensed, then suspended, and then allowed to stand at 4° C. for 1 hour. The cells were washed twice, then suspended in 50 μL of FACS buffer, and the whole content thereof was transferred to a V-bottom 96-well plate (Greiner), to measure the binding of antibodies to the cells using a flow cytometer (Agilent Novocyte).

T5 sequence (Q9JL06 whole entry): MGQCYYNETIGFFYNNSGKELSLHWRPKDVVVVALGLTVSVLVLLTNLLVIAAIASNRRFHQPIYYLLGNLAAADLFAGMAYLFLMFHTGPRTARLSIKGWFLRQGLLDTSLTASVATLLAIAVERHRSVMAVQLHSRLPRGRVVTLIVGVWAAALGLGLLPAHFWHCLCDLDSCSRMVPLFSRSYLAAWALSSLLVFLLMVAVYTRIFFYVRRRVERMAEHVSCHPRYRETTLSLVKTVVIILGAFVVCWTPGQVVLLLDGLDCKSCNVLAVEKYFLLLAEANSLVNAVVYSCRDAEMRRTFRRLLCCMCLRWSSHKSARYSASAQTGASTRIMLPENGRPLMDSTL

Binder | binding result
B1 | no binding (tested: 25 g/mL (so in the source))
B2 | no binding (tested: 25 g/mL (so in the source))
B3 | no binding (tested: 25 g/mL (so in the source))
B4 | no binding (tested: 25 g/mL (so in the source))
B5 | no binding (tested: 25 g/mL (so in the source))
B6 | no binding (tested: 25 g/mL (so in the source))

The binders below were run against T6, human LPA2 with FLAG tag (human LPA2 gene transfected cell) (human, UniProt Q9HBW0 1-348) in the same assay as above.
T6 construct: also called EDG4; not shown: FLAG tag added at the 5' terminal of the gene
Description: as §3, §4, §5

T6 sequence (Q9HBW0 other isoform, or with tags, fused parts or gaps): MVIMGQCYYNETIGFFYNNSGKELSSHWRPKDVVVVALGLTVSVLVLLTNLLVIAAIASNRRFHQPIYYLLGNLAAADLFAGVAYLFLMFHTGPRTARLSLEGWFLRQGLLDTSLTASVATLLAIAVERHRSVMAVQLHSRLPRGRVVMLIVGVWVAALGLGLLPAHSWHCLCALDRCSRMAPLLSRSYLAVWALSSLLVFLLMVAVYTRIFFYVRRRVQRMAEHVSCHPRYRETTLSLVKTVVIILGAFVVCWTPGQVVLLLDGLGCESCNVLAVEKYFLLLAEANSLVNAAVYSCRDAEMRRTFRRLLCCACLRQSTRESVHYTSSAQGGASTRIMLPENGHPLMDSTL

Binder | binding result
B1 | no binding (tested: 25 g/mL (so in the source))
B2 | no binding (tested: 25 g/mL (so in the source))
B3 | no binding (tested: 25 g/mL (so in the source))
B4 | no binding (tested: 25 g/mL (so in the source))
B5 | no binding (tested: 25 g/mL (so in the source))
B6 | no binding (tested: 25 g/mL (so in the source))

The binders below were run against T1, mouse LPA3 with FLAG tag (mouse LPA3 …) in the same assay as above.
Description: as §3, §4, §5

Binder | binding result
B1 | no binding (tested: 25 g/mL (so in the source))
B2 | no binding (tested: 25 g/mL (so in the source))
B3 | no binding (tested: 25 g/mL (so in the source))
B4 | no binding (tested: 25 g/mL (so in the source))
B5 | no binding (tested: 25 g/mL (so in the source))
B6 | no binding (tested: 25 g/mL (so in the source))

The binders below were run against T2, human LPA3 with FLAG tag (human LPA3 …) in the same assay as above.
Description: as §3, §4, §5

Binder | binding result
B1 | no binding (tested: 25 g/mL (so in the source))
B2 | no binding (tested: 25 g/mL (so in the source))
B3 | no binding (tested: 25 g/mL (so in the source))
B4 | no binding (tested: 25 g/mL (so in the source))
B5 | no binding (tested: 25 g/mL (so in the source))
B6 | no binding (tested: 25 g/mL (so in the source))

What follows are binders tested against T4, mouse LPA1 (assay: flow cytometry, mouse LPA1-stably expressing CHO cells, median fluorescence intensity).
From the text: as §1, §2

EC50 | Binder
1.8 nM | B1
1.6 nM | B2
2.1 nM | B3
2 nM | B4
2.4 nM | B5
2.1 nM | B6
